# Results: IntAct's records for PubMed 25503564
# B1: Centrosomal protein of 68 kDa (Homo sapiens), Q76N32 (parent)
# chain: MALGEEKAEAEASEDTKAQSYGRGSCRERELDIPGPMSGEQPPRLEAEGGLISPVWGAEGIPAPTCWIGTDPGGPSRAHQPQASDANREPVAERSEPALSGLPPATMGSGDLLLSGESQVEKTKLSSSEEFPQTLSLPRTTTICSGHDADTEDDPSLADLPQALDLSQQPHSSGLSCLSQWKSVLSPGSAAQPSSCSISASSTGSSLQGHQERAEPRGGSLAKVSSSLEPVVPQEPSSVVGLGPRPQWSPQPVFSGGDASGLGRRRLSFQAEYWACVLPDSLPPSPDRHSPLWNPNKEYEDLLDYTYPLRPGPQLPKHLDSRVPADPVLQDSGVDLDSFSVSPASTLKSPTNVSPNCPPAEATALPFSGPREPSLKQWPSRVPQKQGGMGLASWSQLASTPRAPGSRDARWERREPALRGAKDRLTIGKHLDMGSPQLRTRDRGWPSPRPEREKRTSQSARRPTCTESRWKSEEEVESDDEYLALPARLTQVSSLVSYLGSISTLVTLPTGDIKGQSPLEVSDSDGPASFPSSSSQSQLPPGAALQGSGDPEGQNPCFLRSFVRAHDSAGEGSLGSSQALGVSSGLLKTRPSLPARLDRWPFSDPDVEGQLPRKGGEQGKESLVQCVKTFCCQLEELICWLYNVADVTDHGTAARSNLTSLKSSLQLYRQFKKDIDEHQSLTESVLQKGEILLQCLLENTPVLEDVLGRIAKQSGELESHADRLYDSILASLDMLAGCTLIPDKKPMAAMEHPCEGV
# Variants of: B1
# Conditions: with fbw1a_human BTRC
row,effect of a mutation on the interaction,Variant
1,disrupting interaction strength,S332A;D337A
2,disrupting interaction strength,S332A
3,decreasing interaction strength,D337A
